Biological target: HBV 21 kDa viral core protein (p21) (human hepatitis B virus (HBV))

Substance: Met-p22 (precore protein lacking the signal peptide sequence and having instead an initial methionine), expressed from pCMVKM22
- HBV DNA replication, titration of plasmid molar ratios: 15 fold
